The results in this text go back to US20260209350A1 (Alector, published 2026).

B1: Ab18 (antibody, human IgG1, V domains shown)
VH: QVQLQESGPGLVKPSETLSLTCTVSGGSISSYYWSWIRQPPGKGLEWIGSIYYSGSTNYNPSLKSRVTISVDTSKNQFSLKLSSVTAADTAVYYCARDGGGEYPSGTPFDIWGQGTMVTVSS
VL: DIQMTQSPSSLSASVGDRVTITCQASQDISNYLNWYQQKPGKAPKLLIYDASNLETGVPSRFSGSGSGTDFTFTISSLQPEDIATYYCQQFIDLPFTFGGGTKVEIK
notes: human IgG1
B2: Ab19 (antibody, human IgG1, V domains shown)
VH: B1 VH
VL: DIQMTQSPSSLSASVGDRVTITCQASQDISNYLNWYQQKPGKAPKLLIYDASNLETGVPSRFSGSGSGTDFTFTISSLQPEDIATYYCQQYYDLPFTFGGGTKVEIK
notes: human IgG1
B3: Ab86 (antibody, human IgG1, V domains shown)
VH: QVQLVESGGGVVQPGRSLRLSCAASGFTFSSYGMHWVRQAPGKGLEWVAVISYDGSNKYYADSVKGRFTISRDNSKNTLYLQMNSLRAEDTAVYYCAKDGVYYGLGNWFDPWGQGTLVTVSS
VL: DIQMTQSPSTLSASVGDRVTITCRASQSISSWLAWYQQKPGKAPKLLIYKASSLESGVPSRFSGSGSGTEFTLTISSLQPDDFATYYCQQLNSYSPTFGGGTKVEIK
notes: human IgG1
B4: Ab6 (antibody, human IgG1, V domains shown)
VH: QVQLVQSGAEVKKPGASVKVSCKASGYTFTSYYMHWVRQAPGQGLEWMGIINPGGGSTSYAQKFQGRVTMTRDTSTSTVYMELSSLRSEDTAVYYCARGSPTYGYLYDPWGQGTLVTVSS
VL: EIVLTQSPATLSLSPGERATLSCRASQSVSSYLAWYQQKPGQAPRLLIYDASKRATGIPARFSGSGSGTDFTLTISSLEPEDFAVYYCQQRVNLPPTFGGGTKVEIK
notes: human IgG1
B5: Ab62 (antibody, human IgG1, V domains shown)
VH: EVQLVQSGAEVKKPGESLKISCKGSGYSFTSYWIGWVRQMPGKGLEWMGIIYPGDSDTRYSPSFQGQVTISADKSISTAYLQWSSLKASDTAMYYCARAGHYDDWSGLGLDVWGQGTMVTVSS
VL: B4 VL with R91S, V92S, N93V, L94H, P96Y
notes: human IgG1
B6: Ab87 (antibody, human IgG1, V domains shown)
VH: QVQLQESGPGLVKPSETLSLTCTVSGGSISSYYWSWIRQPPGKGLEWIGSIYYSGSTNYNPSLKSRVTISVDTSKNQFSLKLSSVTAADTAVYYCARHGWDRVGWFDPWGQGTLVTVSS
VL: B4 VL with S31R, K53N, R91Y, V92I, N93F, L94W
notes: human IgG1
B7: Ab20 (antibody, human IgG1, V domains shown)
VH: QVQLQESGPGLVKPSETLSLTCTVSGGSISSYYWSWIRQPPGKGLEWIGSIYYSGSTNYNPSLKSRVTISVDTSKNQFSLKLSSVTAADTAVYYCARSGMASFFDYWGQGTLVTVSS
VL: EIVLTQSPGTLSLSPGERATLSCRASQSVSSDYLAWYQQKPGQAPRLLIYGASSRATGIPDRFSGSGSGTDFTLTISRLEPEDFAVYYCQQFSSHPFTFGGGTKVEIK
notes: human IgG1
B8: Ab72 (antibody, human IgG1, V domains shown)
VH: B7 VH with M100T, A101E, S102T, F103L
VL: DIQMTQSPSSLSASVGDRVTITCQASQDITNYLNWYQQKPGKAPKLLIYDASNLETGVPSRFSGSRSGTDFTFTISSLQPEDIATYYCQQDVNYPPTFGGGTKVEIK
notes: human IgG1
B9: Ab4 (antibody, human IgG1, V domains shown)
VH: QVQLVQSGAEVKKPGSSVKVSCKASGGTFSSYAISWVRQAPGQGLEWMGGIIPIFGTASYAQKFQGRVTITADESTSTAYMELSSLRSEDTAVYYCARGVDSIMDYWGQGTLVTVSS
VL: EIVMTQSPATLSVSPGERATLSCRASQSVSSNLAWYQQKPGQAPRLLIYSASTRATGIPARFSGSGSGTEFTLTISSLQSEDFAVYYCQQDHDYPFTFGGGTKVEIK
notes: human IgG1
B10: Ab64 (antibody, human IgG1, V domains shown)
VH: EVQLVQSGAEVKKPGESLKISCKGSGYSFTSYWIGWVRQMPGKGLEWMGIIYPGDSDTRYSPSFQGQVTISADKSISTAYLQWSSLKASDTAMYYCARLGRWSSGSTAFDIWGQGTMVTVSS
VL: EIVMTQSPATLSVSPGERATLSCRASQSVSSNLAWYQQKPGQAPRLLIYGASTRATGIPARFSGSGSGTEFTLTISSLQSEDFAVYYCQQDDDGYTFGGGTKVEIK
notes: human IgG1
B11: Ab10 (antibody, human IgG1, V domains shown)
VH: B10 VH with Y32N, L99E, G100A, R101G, W102Y, S103D, S104Y, S106E, T107L
VL: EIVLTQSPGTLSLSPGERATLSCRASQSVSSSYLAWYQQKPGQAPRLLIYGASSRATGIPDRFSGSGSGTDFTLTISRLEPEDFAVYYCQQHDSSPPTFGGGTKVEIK
notes: human IgG1
B12: Ab31 (antibody, human IgG1, V domains shown)
VH: QVQLVESGGGVVQPGRSLRLSCAASGFTFSSYGMHWVRQAPGKGLEWVALIWYDGSNKYYADSVKGRFTISRDNSKNTLYLQMNSLRAEDTAVYYCARRRDGYYDEVFDIWGQGTMVTVSS
VL: B8 VL with M4L, T30S, Y32F, R66G, D91P, N93D, Y94L, P96F
notes: human IgG1
B13: Ab3 (antibody, human IgG1, V domains shown)
VH: QVQLVQSGAEVKKPGSSVKVSCKASGGTFSSYAISWVRQAPGQGLEWMGGIIPIFGTANYAQKFQGRVTITADESTSTAYMELSSLRSEDTAVYYCAREQYHVGMDVWGKGTTVTVSS
VL: B8 VL with T30S, E55A, R66G, D91P, V92F, Y94F, P96Y
notes: human IgG1
B14: Ab34 (antibody, human IgG1, V domains shown)
VH: QVQLVESGGGVVQPGRSLRLSCAASGFTFSSYGMHWVRQAPGKGLEWVAVISYDGSNKYYADSVKGRFTISRDNSKNTLYLQMNSLRAEDTAVYYCARDRGGEYVDFAFDIWGQGTMVTVSS
VL: DIQMTQSPSSLSASVGDRVTITCRASQSISSYLNWYQQKPGKAPKLLIYAASSLQSGVPSRFSGSGSGTDFTLTISSLQPEDFATYYCQQSDFPPWTFGGGTKVEIK
notes: human IgG1
B15: Ab54 (antibody, human IgG1, V domains shown)
VH: QVQLVQSGAEVKKPGASVKVSCKASGYTFTSYYMHWVRQAPGQGLEWMGIINPSGGSTSYAQKFQGRVTMTRDTSTSTVYMELSSLRSEDTAVYYCARGPGYTTALDYYYMDVWGKGTTVTVSS
VL: B14 VL with S30N, F93D, P94D, W96F
notes: human IgG1
B16: Ab26 (antibody, human IgG1, V domains shown)
VH: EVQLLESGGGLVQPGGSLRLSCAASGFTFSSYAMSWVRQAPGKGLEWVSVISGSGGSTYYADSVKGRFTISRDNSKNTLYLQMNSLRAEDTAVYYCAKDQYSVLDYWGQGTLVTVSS
VL: B4 VL with K53N, R91E, V92F, N93D, P96F
notes: human IgG1
B17: Ab33 (antibody, human IgG1, V domains shown)
VH: QVQLVESGGGVVQPGRSLRLSCAASGFTFSSYGMHWVRQAPGKGLEWVAVISYDGSNKYYADSVKGRFTISRDNSKNTLYLQMNSLRAEDTAVYYCARAGGHLFDYWGQGTLVTVSS
VL: B4 VL with K53N, R91D, V92S, N93S, L94F
notes: human IgG1
B18: Ab51 (antibody, human IgG1, V domains shown)
VH: QVQLVQSGAEVKKPGASVKVSCKASGYTFTSYYMHWVRQAPGQGLEWMGIINPSGGSTSYAQKFQGRVTMTRDTSTSTVYMELSSLRSEDTAVYYCARGVGGQDYYYMDVWGKGTTVTVSS
VL: DIQMTQSPSSLSASVGDRVTITCRASQSISSYLNWYQQKPGKAPKLLIYAASSLQSGVPSRFSGSGSGTDFTLTISSLQPEDFATYYCQQFDDVFTFGGGTKVEIK
notes: human IgG1

Positions count from the first letter of the chain named.

For one assay, the target named is T1, mouse TREM2 on cells (mouse, UniProt Q99NH8 19-227).
T1 construct: whole, on cells; Used for the recombinant protein on BWZ/BW cells (with mouse DAP12) and for the native protein on mouse macrophages and dendritic cells; the cell type stands under assay; also called mTREM2; mTrem2
T1 sequence (looked up): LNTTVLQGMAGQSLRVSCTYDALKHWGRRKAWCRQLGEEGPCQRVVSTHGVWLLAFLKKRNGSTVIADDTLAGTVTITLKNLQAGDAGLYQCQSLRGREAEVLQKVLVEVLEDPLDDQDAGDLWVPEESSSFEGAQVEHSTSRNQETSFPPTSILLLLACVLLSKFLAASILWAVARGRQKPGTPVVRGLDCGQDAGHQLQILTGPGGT
As to the kind of experiment: FACS, mTrem2 cells. In general terms: Flow cytometry measures light scatter and fluorescence of single cells or particles in a stream.
With B1, the MFI was found to be 5160 MFI.

On to B2, for which the MFI came out at 2300 MFI.

Turning to B3, the MFI stood at 355 MFI.

Molecule B4 returned an MFI of 228 MFI.

B5 displayed an MFI of 4750 MFI.

The molecule B6 yielded an MFI of 1230 MFI.

Consider B7, for which the MFI came out at 11200 MFI.

As for B8, the MFI is 3750 MFI.

On to B9, for which the MFI was found to be 295 MFI.

B10 yielded an MFI of 8680 MFI.

For B11, the MFI turned out to be 11500 MFI.

The target of a further assay is T2, human monomeric His tagged TREM2 protein (human, UniProt Q9NZC2 19-174).
T2 construct: also called hTREM2-HIS
T2 sequence: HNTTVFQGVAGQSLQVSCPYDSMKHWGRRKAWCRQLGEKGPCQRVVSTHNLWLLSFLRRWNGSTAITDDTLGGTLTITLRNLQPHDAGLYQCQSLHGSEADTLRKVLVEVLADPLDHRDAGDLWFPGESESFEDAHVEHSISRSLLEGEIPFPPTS
As to the kind of experiment: ForteBio or MSD-SET, monovalent.
Take B12: the Kd amounted to 6.82 nM.

The molecule B13 registered a dissociation constant (Kd) of 14.2 nM.

In turn, B1 returned a dissociation constant Kd of 6.77 nM.

Regarding B2, binding was characterised by a dissociation constant (Kd) of 4.49 nM.

B14 came in with a Kd of 27 nM.

B15 returned a Kd of 3.02 nM.

For the molecule B16, the Kd stood at 3.6 nM.

In turn, B5 returned a Kd of 14.2 nM.

B17: the Kd was found to be 16 nM.

The molecule B7 yielded a Kd of 3.62 nM.

B8 came in with a dissociation constant (Kd) of 29.4 nM.

In turn, B18 gave a Kd of 1.64 nM. This Kd is about 18-fold lower than that of the molecule before.

B10 displayed a dissociation constant (Kd) of 65.7 nM.

Take B11: the dissociation constant Kd turned out to be 4.79 nM.

In another assay the target is T3, mouse TREM2 Fc fusion protein (mouse, UniProt Q99NH8 19-171).
T3 construct: also called mTREM2-Fc; not shown: Fc part not specified
T3 sequence (looked up): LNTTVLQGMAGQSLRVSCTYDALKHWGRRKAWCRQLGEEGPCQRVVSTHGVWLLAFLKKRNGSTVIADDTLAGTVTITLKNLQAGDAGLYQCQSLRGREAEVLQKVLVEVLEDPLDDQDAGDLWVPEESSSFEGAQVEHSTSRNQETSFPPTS
Briefly: ForteBio or MSD-SET, avid. Background: BLI is a label-free optical method that tracks binding on a fibre tip over time.
B12: the binding result is listed as “no binding”.

B13: the binding result is “no binding”.

For the molecule B14, the binding result is “no binding”.

As for B3, the Kd was determined as 6.55 nM.

As to B4, binding was characterised by a dissociation constant (Kd) of 8.51 nM.

As to B17, the binding result is on record as “no binding”.

Turning to B6, the Kd worked out at 4.48 nM.

Take B9: the binding result is on record as “no binding”.

A further assay has as its target T4, human TREM2 Fc fusion protein (human, UniProt Q9NZC2 19-174).
T4 construct: also called hTREM2-Fc; not shown: Fc part not specified
T4 sequence: T2 sequence
Briefly: ForteBio or MSD-SET, avid.
Molecule B12 returned a Kd of 0.451 nM.

B13 displayed a Kd of 0.49 nM. The Kd values of the last two molecules are within 1.5-fold of each other.

Consider B1, for which the dissociation constant (Kd) turned out to be 0.513 nM.

Molecule B2 returned a dissociation constant (Kd) of 0.465 nM.

Molecule B14 came in with an equilibrium dissociation constant (Kd) of 0.706 nM.

In the case of B15, binding was put at a Kd of 0.5 nM.

B3 had a Kd of 3.89 nM.

In the case of B16, the dissociation constant (Kd) was 0.481 nM.

In the case of B4, the Kd amounted to 4.44 nM. Compared with the last molecule, the Kd is about 9.2-fold higher.

For B5, the dissociation constant (Kd) stood at 0.772 nM.

The molecule B17 gave a dissociation constant (Kd) of 1.42 nM.

In turn, B6 came in with a dissociation constant Kd of 9.51 nM. This Kd is about 6.7-fold higher than that of the molecule before.

The molecule B7 displayed a Kd of 0.658 nM.

B8: the Kd amounted to 0.839 nM. This Kd and that of the molecule before are within 1.5-fold of each other.

Take B18: the Kd stood at 0.284 nM.

As to B9, the Kd was 0.971 nM.

In turn, B10 gave a Kd of 0.945 nM.

In turn, B11 gave a Kd of 0.544 nM.

For orientation: Kd means the constant that tells how readily two partners part at equilibrium. Low readings indicate higher affinity, high ones lower affinity.
